Results from patent US20040171117A1 (GlaxoSmithKline, published 2004).

T1: soluble human RANKL protein (shRANKL) (human, UniProt O14788 140-317, limits assumed, biotinylated at a 20:1 molar ratio of NHS-biotin to protein (competition ELISA only))
T1 sequence (looked up): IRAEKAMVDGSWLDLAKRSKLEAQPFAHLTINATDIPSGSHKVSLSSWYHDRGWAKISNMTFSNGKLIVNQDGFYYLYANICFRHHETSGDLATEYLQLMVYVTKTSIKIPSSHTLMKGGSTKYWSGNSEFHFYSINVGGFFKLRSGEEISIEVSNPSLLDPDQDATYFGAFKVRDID

B1: human RANK-Fc fusion protein (Fc fusion, UniProt Q9Y6Q6 30-212, looked up)
chain: IAPPCTSEKHYEHLGRCCNKCEPGKYMSSKCTTTSDSVCLPCGPDEYLDSWNEEDKCLLHKVCDTGKALVAVVAGNSTTPRRCACTAGYHWSQDCECCRRNTECAPGLGAQHPLQLNKDTVCKPCLAGYFSDAFSSTDKCRPWTNCTFLGKRVEHHGTEKSDAVCSSSLPARKPPNEPHVYLP
notes: Produced in CHO cells; not shown: Fc part
B2: RANKL MAb 19H22 (mouse monoclonal antibody 19H22) (antibody, IgG2b, V domains shown)
VH: EIQLQQSGAELVNPGASVKLSCTASGFNIKGTYMHWVKQRPEQGLEWIGRIDPANGNTKYDPKFQGKATITTDTSPNTAYLQLSSLTSEDTAVYYCTTQFHYYGYGGVYWGQGTLVTVSA
VL: QIVLTQSPAIMSASPGEKVTMTCSASSSVSYMYWYQQKPGSSPRLLIYDTSNLASGVPVRFSGSGSGTSYSLTISRMEAEDAATYYCQQWSNFPLTFGAGTKLELKR
notes: also called 19H22 MAb; murine RANKL MAb 19H22
B3: OPG-Fc (Fc fusion, UniProt O00300 22-201, looked up)
chain: ETFPPKYLHYDEETSHQLLCDKCPPGTYLKQHCTAKWKTVCAPCPDHYYTDSWHTSDECLYCSPVCKELQYVKQECNRTHNRVCECKEGRYLEIEFCLKHRSCPPGFGVVQAGTPERNTVCKRCPDGFFSNETSSKAPCRKHTNCSVFGLLLTQKGNATHDNICSGNSESTQKCGIDVTL
notes: Construct not described; also called osteoprotegerin-Fc; not shown: Fc part; not described

Tests used:
[1] = target: T1, soluble human RANKL protein (shRANKL); assay: cell-based or functional assay
[2] = target: T1, soluble human RANKL protein (shRANKL); assay: competition ELISA: soluble RANK-Fc inhibiting biotinylated shRANKL binding to coated RANK-Fc
Excerpt: (§1) A. A competition ELISA was established using a human RANK-Fc fusion protein coated on plastic and a biotinylated soluble human RANKL protein for detection in solution. The RANK-Fc and RANKL proteins were produced in CHO cells and Pichia pastoris, respectively, and purified to >90% homogeneity. The shRANKL (soluble, human RANKL) protein was biotinylated at a 20:1 molar ratio of NHS-biotin to protein (Pierce, Rockford, Ill.) according to th manufacturer's specifications. 96-well ELISA plates were coated overnight at 4° C. with 50 ng/well ([…]) RANK-Fc in pH 9.6 carbonate-bicarbonate buffer. Plates were washed in pH 7.4 Tris-Saline buffer containing 0.1% Tween 20 and blocked for 2 h at RT in 1% BSA/PBS. Competitor proteins (RANK-Fc; death receptor 5 (DR5)-Fc; OPG-Fc; RANKL MAb 19H22) were diluted in 0.01% Tween 20/PBS and added to wells prior to the addition of biotinylated shRANKL (0.43 nM) and the combined samples were incubated for 2 hrs at room temperature. The amount of biotinylated shRANKL bound to coated RANK-Fc (+/−competitor) was measured using alkaline phosphatase conjugated streptavidin. The substrate for signal detection was 105 PNPP (Pierce Inc., Rockford, Ill.) and absorbance measured at 405 nm using a Spectra Max 340 plate reader.

[3] = target: T1, soluble human RANKL protein (shRANKL); assay: not stated there (paragraph 33 defines high affinity as determined by optical biosensor analysis)
[4] = target: T1, soluble human RANKL protein (shRANKL); assay: competition ELISA: inhibition of biotinylated shRANKL binding to coated RANK-Fc
Excerpt: as §1

| Binder | IC50, human monocyte osteoclastogenesis (formation of multinuclear cells) with 50 ng/ml human soluble RANKL plus M-CSF [1] [µg/mL] | IC50 [2] [nM] | Kd [3] [nM] | IC50 [4] [nM] |
| --- | --- | --- | --- | --- |
| B1 | ~0.5 | ~6 |  |  |
| B2 | ~4 |  | ~0.1 | ~2 |
| B3 |  |  |  | ~0.5 |
